The values that follow come from the supplement of paper PMC12764529.

± gives the half width of the 95% confidence interval.

Data set [1] in a line: folding stability dG unfold from chymotrypsin proteolysis; higher = more stable. A digest of the protocol:
(§1)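 Designed mini-proteins with no cysteine and under 80 residues were kept only if AlphaFold2 dimer inter-PAE was above 15. In a PA-tagged cDNA display construct, they were digested with trypsin and chymotrypsin and then sequenced. K50 was inferred by Bayesian fitting of counts, and unfolding free energy was derived per protease or combined against a sequence-predicted unfolded-state K50 and a shared folded-state K50.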

Data set [2] can be described thus: folding stability dG unfold (combined trypsin and chymotrypsin); higher = more stable. The method in brief:
as §1

A short description of data set [3]: folding stability dG unfold from trypsin proteolysis; higher = more stable. The method in brief: as §1

In the case of “SAGGSAGGGEMELVLTVPPEEVTPEQLLELVEEIREALEKGGAKAEPVKIDPEKGVVILFRVDPSAGGSAGG [r6_850_TrMRF]”, the “folding stability dG unfold” value in data set [1] was 0.258 ± 0.27 kcal/mol; in data set [2], 0.00838 ± 0.26 kcal/mol; in data set [3], -0.273 ± 0.14 kcal/mol.
For “SAGGSAGGGEPFVIRVELEWPNNNSIPFNIPFPPGDAITAAKNIASPLRKMGRPIKIKITDIYPSAGGSAGG [r6_721_TrROS]”, the figures for the “folding stability dG unfold” value in data set [1], in data set [2] and in data set [3] were 0.0836 ± 0.41 kcal/mol, 0.419 ± 0.16 kcal/mol and 0.545 ± 0.13 kcal/mol, respectively.
Take “SAGGSAGGGFILEVDPEKGVAVAYFDPSTGEVVVAVPEGPVYRFASAEEVVAATGKPVVIVPATSAGGSAGG [r6_752_TrMRF]”: the “folding stability dG unfold” value in data set [1] is 0.702 ± 0.044 kcal/mol; in data set [2], 0.966 ± 0.054 kcal/mol; in data set [3], 1.17 ± 0.024 kcal/mol.
Turning to “SAGGSAGGGGMTVTITVPVPSPTATYTVSFPSSSATASFTAEPGGPLTITVNAPSVTSITVTVSSAGGSAGG [r6_808_JUSTAS]”, the “folding stability dG unfold” value was found to be 3.98 ± 0.053 kcal/mol in data set [1], 3.63 ± 0.11 kcal/mol in data set [2] and 3.03 ± 0.1 kcal/mol in data set [3].
With “SAGGSAGGGGTLTIEVDAPAGAKKINIELPGGTVSNLSYDPSTGKATIPFDTPEQAKAVEALVGSAGGSAGG [r6_745_TrMRF]”, the “folding stability dG unfold” value was 0.098 ± 0.088 kcal/mol in data set [1], -0.086 ± 0.058 kcal/mol in data set [2] and -0.493 ± 0.097 kcal/mol in data set [3].
Take “SAGGSAGGGKPKVEIEYNGKTYEFDSLEELVAEAKEPVRIRLPNGEEIELSREDLKNLTVRLVPSAGGSAGG [r6_684_TrROS_Hall]”: the “folding stability dG unfold” value in data set [1] came out at 2.29 ± 0.056 kcal/mol; in data set [2], 1.99 ± 0.043 kcal/mol; in data set [3], 1.55 ± 0.018 kcal/mol.
The like results for “SAGGSAGGGKRLEITRTYFIPPDDIDKLKDLPGIREVTPHRMPDGYYMITVTIRIPISADQLKASAGGSAGG [r6_155_TrROS]” were, in that order, 2.1 ± 0.084 kcal/mol, 1.94 ± 0.2 kcal/mol and 1.7 ± 0.051 kcal/mol.
“SAGGSAGGGMKFVKVTLEYAGGEVREYLFTTSSSDSTVEVVIEDLPPEKGARITEITEYPASLLSAGGSAGG [r6_530_JUSTAS]”: the “folding stability dG unfold” value worked out at 1.17 ± 0.16 kcal/mol in data set [1], 0.978 ± 0.21 kcal/mol in data set [2] and 0.746 ± 0.068 kcal/mol in data set [3].
As to “SAGGSAGGGMKITEITIEKDPENPDTYTITIKVDGKTYTITVKKGETLYIFDKDGKLVLEIKVDSAGGSAGG [r6_920_TrROS_Hall]”, the “folding stability dG unfold” value in data set [1] is 5.24 ± 0.14 kcal/mol; in data set [2] it was 5.1 ± 0.25 kcal/mol; in data set [3] it was 4 ± 0.41 kcal/mol.
Consider “SAGGSAGGGMKVKKIEIKKDPNNPNIYTITIELEDEPIEYTVPPSTPTTIKKPGGKPLYSSPLPSAGGSAGG [r6_922_JUSTAS]”, for which the “folding stability dG unfold” value in data set [1] is 0.986 ± 0.26 kcal/mol; in data set [2], 0.567 ± 0.15 kcal/mol; in data set [3] it was -0.626 ± 0.24 kcal/mol.
Consider “SAGGSAGGGMPPVVTTEISVEEVRPDERDENGNRYFLVTTTLTFPDSTVTTERWLEEEELEELLSAGGSAGG [r6_724_JUSTAS]”, for which the “folding stability dG unfold” value in data set [1] was found to be 0.912 ± 0.16 kcal/mol; in data set [2] it was 1.09 ± 0.15 kcal/mol; in data set [3], 1.3 ± 0.033 kcal/mol.
For the sequence “SAGGSAGGGMPSITLLETVEEKLPGSRTRVTTLSYDPATGNLVVTTTTFASPGTSTTSTTVLPPSAGGSAGG [r6_745_JUSTAS]”, the entries for the “folding stability dG unfold” value in data set [1], in data set [2] and in data set [3] were 1.51 ± 0.069 kcal/mol, 1.33 ± 0.074 kcal/mol and 1.13 ± 0.038 kcal/mol, respectively.
On to “SAGGSAGGGMRIDDIDIKQDPGNPNRYKITIKFDGPPIEFTVPPGEPLPIRFPDGKPLFEIPIDSAGGSAGG [r6_922_TrROS]”, for which the “folding stability dG unfold” value in data set [1] is 0.486 ± 0.16 kcal/mol; in data set [2], 0.479 ± 0.068 kcal/mol; in data set [3], 0.312 ± 0.062 kcal/mol.
“SAGGSAGGGMSMEELKTVDYPLVVTVPLPDGSTVTVSAKVPAEDLDKAIPEVEERAKALAEEGASAGGSAGG [r6_903_JUSTAS]”: the entries for the “folding stability dG unfold” value in data set [1], in data set [2] and in data set [3] were 1.26 ± 0.038 kcal/mol, 0.843 ± 0.059 kcal/mol and -0.194 ± 0.053 kcal/mol, respectively.
Take “SAGGSAGGGMTAEELAAKAIEEALKAGETVTVEIEVTNPNGETFTLELTLVVVDPDDPEALEALSAGGSAGG [r6_534_TrROS_Hall]”: the “folding stability dG unfold” value amounted to 1.29 ± 0.014 kcal/mol in data set [1], 1.49 ± 0.05 kcal/mol in data set [2] and 1.64 ± 0.057 kcal/mol in data set [3].
For the sequence “SAGGSAGGGMTLQITSIIEIKKPPDGPVVKFTVAGPGTTRTVTINLPENEIKPTTPIPLSRVLSSAGGSAGG [r6_585_JUSTAS]”, the “folding stability dG unfold” value stood at 0.968 ± 0.48 kcal/mol in data set [1], 1.57 ± 0.31 kcal/mol in data set [2] and 1.86 ± 0.13 kcal/mol in data set [3].
With “SAGGSAGGGNVYVKIEIYPYDPKNGEPQEQDITIPFETKEDAKDEIEKLLNMPNGMWIKIEVVDSAGGSAGG [r7_0_TrROS]”, the “folding stability dG unfold” value in data set [1] was 1.47 ± 0.035 kcal/mol; in data set [2], 1.47 ± 0.12 kcal/mol; in data set [3], 1.31 ± 0.053 kcal/mol.
With “SAGGSAGGGPDPSLPPPEVIEVVLPPDTLFRPPGGGYLSPEEVVELAKELEEREGIKATVTIRPSAGGSAGG [r6_162_JUSTAS]”, the “folding stability dG unfold” value in data set [1] is 0.588 ± 0.095 kcal/mol; in data set [2] it was 0.823 ± 0.15 kcal/mol; in data set [3], 1 ± 0.09 kcal/mol.
In the case of “SAGGSAGGGPPLPPPVLVLPARVERVFYDPVTGELTVETVDFPVVIRPDGSVYLGDRWIPPELLSAGGSAGG [r6_514_TrMRF]”, the “folding stability dG unfold” value in data set [1] was found to be 1.85 ± 0.12 kcal/mol; in data set [2], 1.61 ± 0.2 kcal/mol; in data set [3], 1.23 ± 0.046 kcal/mol.
As for “SAGGSAGGGPPNAPLKIYTDDGSVNLLNLDGQPLLVTVHPDATAEITLPDGTKITVPIPPGANLSAGGSAGG [r6_105_TrMRF]”, the “folding stability dG unfold” value in data set [1] was 0.628 ± 0.054 kcal/mol; in data set [2] it was 0.977 ± 0.069 kcal/mol; in data set [3], 1.26 ± 0.072 kcal/mol.
As for “SAGGSAGGGSISIPGPGPVSATTDPVTKTLVTVTYPTSEVRIPIEGDKFTEAETTPLPPPPALTSAGGSAGG [r6_847_JUSTAS]”, the results for the “folding stability dG unfold” value in data set [1], in data set [2] and in data set [3] were 1.08 ± 0.036 kcal/mol, 0.708 ± 0.072 kcal/mol and -0.16 ± 0.1 kcal/mol, respectively.
Turning to “SAGGSAGGGSLKYTPGVHRLTYYDPATGTTTTLTFTSEEEALEYLKKKYPDVPWKRNPDGTWVLSAGGSAGG [r6_288_JUSTAS]”, the figures for the “folding stability dG unfold” value in data set [1], in data set [2] and in data set [3] were 2.15 ± 0.12 kcal/mol, 2.08 ± 0.25 kcal/mol and 1.62 ± 0.059 kcal/mol, respectively.
As to “SAGGSAGGGSMGSVSVSETTTTSTEGSTTTTTTVHTTTVGGTTTTTTTTTTTSPTPGASSPATASAGGSAGG [r6_684_JUSTAS]”, the “folding stability dG unfold” value was 1.71 ± 0.043 kcal/mol in data set [1], 1.85 ± 0.047 kcal/mol in data set [2] and 2.01 ± 0.065 kcal/mol in data set [3].
Turning to “SAGGSAGGGSMSMPVTTKLVEEYTFPGTKEEAEEFLKKKLPPNYQVEITETPDSIKVKVYKVEGSAGGSAGG [r6_953_JUSTAS]”, the figures for the “folding stability dG unfold” value in data set [1], in data set [2] and in data set [3] were 2.36 ± 0.042 kcal/mol, 2.38 ± 0.057 kcal/mol and 2.31 ± 0.053 kcal/mol, respectively.
Consider “SAGGSAGGGSMSVSYDPSTGNTITTTTTRSPTPLTTTTTTTTFPDGSTSTSTTTTAAPPPAPTTSAGGSAGG [r6_955_JUSTAS]”, for which the entries for the “folding stability dG unfold” value in data set [1], in data set [2] and in data set [3] were 0.716 ± 0.024 kcal/mol, 0.761 ± 0.046 kcal/mol and 0.833 ± 0.029 kcal/mol, respectively.
Turning to “SAGGSAGGGWITIPIYIIKMKRTRRDPDGKPKPLDPNDPEDFEVVPPRPFRIPLPPEEAKKLLKSAGGSAGG [r6_219_TrROS]”, the “folding stability dG unfold” value in data set [1] is -0.464 ± 0.43 kcal/mol; in data set [2], -0.434 ± 0.24 kcal/mol; in data set [3] it was -0.542 ± 0.32 kcal/mol.
As to “SAGGSAGGIEVKIEGEIKPVKVTVSFSTANGDGNPKEYPVEKTYLVVDIKIEVNSPEAAKKINISAGGSAGG [r6_149_TrMRF]”, the “folding stability dG unfold” value in data set [1] came out at 3 ± 0.13 kcal/mol; in data set [2], 2.51 ± 0.14 kcal/mol; in data set [3], 1.37 ± 0.058 kcal/mol.
With “SAGGSAGGIIVWFPFDDIDELIKNGNIDEVEISRDPNDWFRFTPEIRPPPPPPPEQLAKNNKKNSAGGSAGG [r6_279_TrROS]”, the “folding stability dG unfold” value worked out at 0.493 ± 0.11 kcal/mol in data set [1], 0.735 ± 0.22 kcal/mol in data set [2] and 1.03 ± 0.16 kcal/mol in data set [3].
As for “SAGGSAGGIKPGETVLIVFKDKPEILVFPPGMSEEERKAFPGAKFILVKVEKPELTEEELKALESAGGSAGG [r6_830_TrROS_Hall]”, the results for the “folding stability dG unfold” value in data set [1], in data set [2] and in data set [3] were -0.275 ± 0.18 kcal/mol, -0.232 ± 0.16 kcal/mol and -0.623 ± 0.13 kcal/mol, respectively.
Consider “SAGGSAGGIRINPENGQIYFPLENGKAKSVPFKPGQEREIPNGWRITIKPDPPGPWEIEVKPLDSAGGSAGG [r6_296_TrROS]”, for which the results for the “folding stability dG unfold” value in data set [1], in data set [2] and in data set [3] were -0.578 ± 0.61 kcal/mol, -0.499 ± 0.22 kcal/mol and -0.509 ± 0.42 kcal/mol, respectively.
For “SAGGSAGGKAKIKKIEVELNEDGTLKVTAYDEETNEKITLEVKLPKPKPVYFDEEKLKEELEKKSAGGSAGG [r6_627_TrROS_Hall]”, the “folding stability dG unfold” value was 0.963 ± 0.14 kcal/mol in data set [1], 0.629 ± 0.19 kcal/mol in data set [2] and -0.313 ± 0.19 kcal/mol in data set [3].
The like results for “SAGGSAGGKGKLVDEPPIRDPNNGKDVWAFIMDPDGRMEVYDPNEIEEIPLKPGQIMIFTPEDLSAGGSAGG [r6_627_TrROS]” were, in that order, 0.168 ± 0.34 kcal/mol, 0.648 ± 0.16 kcal/mol and 0.757 ± 0.069 kcal/mol.
Consider “SAGGSAGGKISKEDLEKILEAIKEGKPITIVKVKVEKNENGEEVEKVEVIKTFTAEELKKLGIESAGGSAGG [r6_402_TrROS_Hall]”, for which the “folding stability dG unfold” value in data set [1] turned out to be 1.61 ± 0.073 kcal/mol; in data set [2], 1.43 ± 0.2 kcal/mol; in data set [3] it was 1.73 ± 0.14 kcal/mol.
In the case of “SAGGSAGGKITPEMEKLKKEIADAIKKAFPNKDLKIEVIKIEKTKDGSVIIDIKIGDKIIRIKASAGGSAGG [r6_494_TrMRF]”, the “folding stability dG unfold” value in data set [1] was 1.85 ± 0.12 kcal/mol; in data set [2], 2.16 ± 0.19 kcal/mol; in data set [3], 2.58 ± 0.14 kcal/mol.
Consider “SAGGSAGGKKIKIEIIYDKENNKLYIYVVDENTKKVYRYEFNKNGKLIKVEPVKEVKPGEVIPLSAGGSAGG [r6_148_TrROS_Hall]”, for which the “folding stability dG unfold” value in data set [1] was 2.49 ± 0.16 kcal/mol; in data set [2], 2.32 ± 0.22 kcal/mol; in data set [3], 1.96 ± 0.15 kcal/mol.
With “SAGGSAGGKKKIKPPEVTIKIKNKDGSVFEAKITKVEYDEETKKLYLEIEIEVNGKKYKLTIELSAGGSAGG [r6_962_TrROS_Hall]”, the “folding stability dG unfold” value in data set [1] stood at 4.49 ± 0.26 kcal/mol; in data set [2] it was 4.16 ± 0.76 kcal/mol; in data set [3] it was 2.87 ± 0.16 kcal/mol.
